# B1: VTGAVGVGK polypeptide (KRAS; SEQ ID NO: 3) (peptide)
# peptide: VTGAVGVGK
# notes: Synthesized mutant KRAS neoantigen peptide, printed as a 9-mer; also called core polypeptide
# B2: VTVGAVGVGK polypeptide (KRAS; SEQ ID NO: 4) (peptide)
# peptide: VTVGAVGVGK
# notes: Synthesized mutant KRAS neoantigen peptide; also called core polypeptide
# B3: VTVGADGVGK polypeptide (KRAS; SEQ ID NO: 1) (peptide)
# peptide: VTVGADGVGK
# notes: as for B2
# B4: VTVGAAGVGK polypeptide (KRAS; SEQ ID NO: 5) (peptide)
# peptide: VTVGAAGVGK
# notes: as for B2
# B5: VSVGAVGVGK polypeptide (KRAS; SEQ ID NO: 6) (peptide)
# peptide: VSVGAVGVGK
# notes: as for B2
# Molecular target: T1, HLA-A*11:01 (MHC-I molecules on the surfaces of T2 cells) (human)
# T1 construct: It only names the antibody against 'the corresponding HLA typing (HLA-A*11:01)'; also called HLA molecules
# Experiment: T2 cell MHC-I stabilisation assay, flow cytometry with FITC anti-HLA-A*11:01 antibody
# Description: The synthesized polypeptides were added to 2*10⁵ T2 cells, and human β2 micro-globulin (final concentration of 3 μg/ml) was added and cultivated in 24-well plate. The plate was cultured in an incubator (37° C., 5% CO₂) overnight.
# 200 g of cultured cells was centrifuged for 5 minutes to collect the cells. After washing twice with PBS, the cells were directly incubated with FITC-labeled monoclonal antibody against the corresponding HLA typing (HLA-A*11:01), and maintained at 4° C. for 30 minutes.
row,Binder,FI (fluorescence index)
1,B1,2.37
2,B2,2.02
3,B3,2.83
4,B4,2.12
5,B5,2.42

# Reference: US20220378887A1 (GENOIMMUNE THERAPEUTICS, published 2022)
